Starred links: 1 amine or outer side, 2 acyl side, 3 side chain; linkers in the order of their positions; H or OH if unused. Positions of bridges follow the written chain, without caps; N, C: chain ends. Non-standard residues stand in square brackets, D forms with d. No end group written: not given here. *: point of attachment. FITC = O=C1OC2(c3ccc(O)cc3Oc3cc(O)ccc32)c2ccc(NC(=S)*)cc21; TATA = O=C(CC[*:1])N1CN(C(=O)CC[*:2])CN(C(=O)CC[*:3])C1; Ahx = NCCCCCC(=O)O; Fl = fluorescein; Sar = CNCC(=O)O
Experiments:
integrin αvβ3 [1] = biological target: integrin αvβ3 (Homo sapiens, UniProt P05106+P06756); assay: Human FP direct binding assay; conditions: Table 3; fluorescently modified peptides; Integrin aVb3
Description: (§1) Affinity of selected fluorescently modified peptides of the invention for integrin αvβ3 (Kd) (and αvβ5 to test for selectivity) was determined using a human direct binding assay analogous to that described in Schottelius et al. (2009) Acc. Chem. Res. 42, 969-980.

integrin αvβ3 [2] = biological target: T1, integrin αvβ3 (human, UniProt P06756 31-992; P05106 27-718); assay: Human FP Direct binding
T1 construct: also called Integrin aVb3
Description: as §1

T1 sequence (P06756 31-992, chain 1 of 2): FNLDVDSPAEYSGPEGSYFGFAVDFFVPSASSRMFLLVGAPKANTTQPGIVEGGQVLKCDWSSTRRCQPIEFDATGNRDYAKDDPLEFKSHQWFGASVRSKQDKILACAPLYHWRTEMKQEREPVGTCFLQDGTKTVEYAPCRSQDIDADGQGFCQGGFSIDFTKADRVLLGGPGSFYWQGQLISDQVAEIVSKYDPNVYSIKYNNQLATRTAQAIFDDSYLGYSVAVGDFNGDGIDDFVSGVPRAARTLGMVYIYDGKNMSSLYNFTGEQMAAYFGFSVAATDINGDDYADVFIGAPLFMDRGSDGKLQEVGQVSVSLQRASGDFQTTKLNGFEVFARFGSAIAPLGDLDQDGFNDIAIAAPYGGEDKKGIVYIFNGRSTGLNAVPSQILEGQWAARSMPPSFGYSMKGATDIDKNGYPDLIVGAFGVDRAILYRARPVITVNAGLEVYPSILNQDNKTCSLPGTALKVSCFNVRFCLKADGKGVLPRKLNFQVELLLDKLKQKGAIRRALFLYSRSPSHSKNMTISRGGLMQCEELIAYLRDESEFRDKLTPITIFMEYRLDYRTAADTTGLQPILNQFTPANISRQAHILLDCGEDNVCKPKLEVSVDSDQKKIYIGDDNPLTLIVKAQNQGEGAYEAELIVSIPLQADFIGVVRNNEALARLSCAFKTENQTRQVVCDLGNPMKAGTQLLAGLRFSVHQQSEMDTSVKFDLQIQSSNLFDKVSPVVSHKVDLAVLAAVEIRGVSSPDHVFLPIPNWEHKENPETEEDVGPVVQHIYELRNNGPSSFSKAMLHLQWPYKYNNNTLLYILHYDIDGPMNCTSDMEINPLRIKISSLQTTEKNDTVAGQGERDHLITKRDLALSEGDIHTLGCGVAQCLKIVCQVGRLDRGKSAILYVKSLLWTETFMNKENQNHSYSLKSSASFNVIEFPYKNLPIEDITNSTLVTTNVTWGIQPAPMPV
T1 sequence (P05106 27-718, chain 2 of 2): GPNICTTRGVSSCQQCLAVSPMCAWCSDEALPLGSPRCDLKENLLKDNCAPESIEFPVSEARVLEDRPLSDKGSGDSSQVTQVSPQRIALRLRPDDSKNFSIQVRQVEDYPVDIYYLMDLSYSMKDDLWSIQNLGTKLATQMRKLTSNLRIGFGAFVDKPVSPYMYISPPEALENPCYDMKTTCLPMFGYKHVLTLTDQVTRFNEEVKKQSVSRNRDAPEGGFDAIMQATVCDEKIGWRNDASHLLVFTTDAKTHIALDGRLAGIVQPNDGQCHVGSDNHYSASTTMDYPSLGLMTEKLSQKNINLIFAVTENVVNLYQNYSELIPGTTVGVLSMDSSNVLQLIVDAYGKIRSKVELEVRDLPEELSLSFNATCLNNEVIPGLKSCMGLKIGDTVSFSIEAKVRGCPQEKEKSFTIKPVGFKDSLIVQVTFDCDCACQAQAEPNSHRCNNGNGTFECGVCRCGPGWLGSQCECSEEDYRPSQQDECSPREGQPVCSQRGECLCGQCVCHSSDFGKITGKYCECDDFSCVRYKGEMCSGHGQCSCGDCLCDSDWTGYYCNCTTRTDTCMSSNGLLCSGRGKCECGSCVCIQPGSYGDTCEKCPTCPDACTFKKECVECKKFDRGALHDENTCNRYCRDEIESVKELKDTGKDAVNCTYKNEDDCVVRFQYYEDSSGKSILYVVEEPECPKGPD
Sequence of integrin αvβ3 (Homo sapiens, UniProt P05106+P06756) (P06756 31-889 limits assumed): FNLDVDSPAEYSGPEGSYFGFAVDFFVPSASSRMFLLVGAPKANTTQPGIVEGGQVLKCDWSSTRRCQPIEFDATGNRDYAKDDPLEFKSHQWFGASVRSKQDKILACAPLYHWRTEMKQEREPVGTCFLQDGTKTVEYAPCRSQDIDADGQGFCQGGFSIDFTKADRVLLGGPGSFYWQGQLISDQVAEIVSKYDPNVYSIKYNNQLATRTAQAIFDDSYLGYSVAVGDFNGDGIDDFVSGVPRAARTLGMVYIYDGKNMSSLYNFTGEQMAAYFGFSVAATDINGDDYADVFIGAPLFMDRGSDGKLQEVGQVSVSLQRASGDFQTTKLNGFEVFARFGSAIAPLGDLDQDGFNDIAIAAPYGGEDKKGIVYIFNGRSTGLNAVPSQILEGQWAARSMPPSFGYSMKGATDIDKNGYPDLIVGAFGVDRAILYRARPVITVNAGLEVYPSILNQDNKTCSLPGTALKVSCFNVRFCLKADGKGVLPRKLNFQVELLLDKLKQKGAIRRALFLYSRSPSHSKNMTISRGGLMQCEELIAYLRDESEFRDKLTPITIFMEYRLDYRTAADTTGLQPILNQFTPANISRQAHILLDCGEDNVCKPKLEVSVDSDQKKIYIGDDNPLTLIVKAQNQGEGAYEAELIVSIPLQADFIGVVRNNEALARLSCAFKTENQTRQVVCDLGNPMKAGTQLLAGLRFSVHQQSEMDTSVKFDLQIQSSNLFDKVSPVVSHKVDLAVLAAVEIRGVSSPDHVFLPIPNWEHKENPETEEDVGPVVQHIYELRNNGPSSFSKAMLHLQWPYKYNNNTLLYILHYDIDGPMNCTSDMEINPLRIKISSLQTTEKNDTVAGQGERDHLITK
Sequence of integrin αvβ3 (Homo sapiens, UniProt P05106+P06756) (P06756 891-1048 partner limits assumed): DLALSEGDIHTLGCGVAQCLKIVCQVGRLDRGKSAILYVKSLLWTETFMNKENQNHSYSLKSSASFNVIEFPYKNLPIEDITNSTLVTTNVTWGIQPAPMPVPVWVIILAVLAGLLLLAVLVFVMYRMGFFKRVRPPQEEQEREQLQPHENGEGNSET
Sequence of integrin αvβ3 (Homo sapiens, UniProt P05106+P06756) (P05106 27-788): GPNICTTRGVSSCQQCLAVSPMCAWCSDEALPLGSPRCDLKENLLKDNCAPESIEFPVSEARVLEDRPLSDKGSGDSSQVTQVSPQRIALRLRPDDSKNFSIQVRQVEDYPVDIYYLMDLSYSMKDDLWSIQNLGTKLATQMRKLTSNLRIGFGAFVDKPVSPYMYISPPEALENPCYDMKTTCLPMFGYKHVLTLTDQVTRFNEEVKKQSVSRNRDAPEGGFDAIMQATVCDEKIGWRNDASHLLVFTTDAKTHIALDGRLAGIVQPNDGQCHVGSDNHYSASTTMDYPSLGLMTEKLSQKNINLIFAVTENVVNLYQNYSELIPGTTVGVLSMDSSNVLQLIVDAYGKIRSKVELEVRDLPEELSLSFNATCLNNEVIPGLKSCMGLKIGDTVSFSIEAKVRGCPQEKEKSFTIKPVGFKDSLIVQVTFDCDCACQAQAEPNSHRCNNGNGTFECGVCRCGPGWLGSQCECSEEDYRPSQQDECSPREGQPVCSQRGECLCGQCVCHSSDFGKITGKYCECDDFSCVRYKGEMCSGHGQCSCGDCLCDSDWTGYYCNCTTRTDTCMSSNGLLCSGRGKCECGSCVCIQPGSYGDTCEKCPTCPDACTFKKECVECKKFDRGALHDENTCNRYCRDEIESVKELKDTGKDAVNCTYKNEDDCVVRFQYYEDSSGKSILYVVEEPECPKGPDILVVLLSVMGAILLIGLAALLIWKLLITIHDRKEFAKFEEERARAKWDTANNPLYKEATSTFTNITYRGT

Kd (integrin αvβ3 [2]) | Molecule | Kd (integrin αvβ3 [1])
– | {FITC-Ahx}-GRGSSP [BCY7766] | 1.15 nM
1.15 nM | {FITC-Ahx}-GRGSSP (also called FITC-Ahx-GRGSSP) [BCY7766] | –
0.05 nM | Ac-CPHIGRTDCPPCA[Sar][Sar][Sar][Sar][Sar][Sar]K(Fl) (linker 1-9-12 via TATA) [BCY7508] | –

From patent publication US20220064221A1, “BICYCLIC PEPTIDE LIGANDS SPECIFIC FOR INTEGRIN ALPHA-V-BETA-3” (BicycleTx Limited, priority 2019, published 2022)
